How the values were obtained:
[1] = biological target: Feline_OSMR_hlgG1_Fc (feline); assay: SPR Biacore
[2] = biological target: Feline_OSMR_hlgG1_Fc (feline); assay: indirect ELISA, fOSMR coated; OD ratio to antibody expression control
[3] = biological target: Canine_OSMR_hlgG1_Fc (canine); assay: SPR Biacore
Canine_OSMR_hlgG1_Fc (canine), sequence (chain, as listed by the source limits assumed, form in doubt): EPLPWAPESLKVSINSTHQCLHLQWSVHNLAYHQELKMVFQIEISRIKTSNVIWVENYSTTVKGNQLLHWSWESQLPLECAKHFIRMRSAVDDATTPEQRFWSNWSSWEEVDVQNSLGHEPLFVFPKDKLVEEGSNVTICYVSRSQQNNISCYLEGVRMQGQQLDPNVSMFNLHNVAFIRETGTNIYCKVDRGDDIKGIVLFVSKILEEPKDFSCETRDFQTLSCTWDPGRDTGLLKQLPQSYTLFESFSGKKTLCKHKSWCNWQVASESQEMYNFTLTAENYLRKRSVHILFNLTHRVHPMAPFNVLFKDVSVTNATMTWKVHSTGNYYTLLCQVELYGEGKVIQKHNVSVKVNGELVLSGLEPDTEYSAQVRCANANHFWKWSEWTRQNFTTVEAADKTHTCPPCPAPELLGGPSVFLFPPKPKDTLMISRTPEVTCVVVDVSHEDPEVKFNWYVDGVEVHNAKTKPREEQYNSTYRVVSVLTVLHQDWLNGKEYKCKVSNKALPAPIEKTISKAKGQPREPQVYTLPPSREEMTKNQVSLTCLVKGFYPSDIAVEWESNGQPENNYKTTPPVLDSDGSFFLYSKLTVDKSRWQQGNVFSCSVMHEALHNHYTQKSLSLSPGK

Feline_OSMR_hlgG1_Fc (feline), sequence (chain, as listed by the source limits assumed, form in doubt): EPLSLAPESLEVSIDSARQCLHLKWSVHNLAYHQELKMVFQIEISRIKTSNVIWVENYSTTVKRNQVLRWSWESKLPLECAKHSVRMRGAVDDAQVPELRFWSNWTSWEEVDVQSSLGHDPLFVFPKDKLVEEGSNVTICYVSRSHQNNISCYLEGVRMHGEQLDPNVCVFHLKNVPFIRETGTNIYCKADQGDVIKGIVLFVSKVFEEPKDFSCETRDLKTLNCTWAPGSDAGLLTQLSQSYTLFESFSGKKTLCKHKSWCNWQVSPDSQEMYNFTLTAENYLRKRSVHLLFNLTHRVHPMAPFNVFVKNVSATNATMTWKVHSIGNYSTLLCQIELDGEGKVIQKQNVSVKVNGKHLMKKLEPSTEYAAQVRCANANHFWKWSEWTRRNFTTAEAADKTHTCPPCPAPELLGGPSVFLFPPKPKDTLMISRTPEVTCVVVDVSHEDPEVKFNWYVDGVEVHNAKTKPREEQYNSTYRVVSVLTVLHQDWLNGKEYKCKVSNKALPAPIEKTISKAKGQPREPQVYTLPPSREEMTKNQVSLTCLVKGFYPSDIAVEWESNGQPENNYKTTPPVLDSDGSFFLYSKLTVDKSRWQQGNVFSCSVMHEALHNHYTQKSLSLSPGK

Binder	Kd [1]	koff [1]	kon [1]	ELISA ratio [2]	Kd [3]	koff [3]	kon [3]
Mu_02D09_VH (SEQ ID NO: 31)_D31A (antibody, V domains shown) VH: EVQLVESGGGLVKPGGSLTLSCAASGFTFSAYGMHWLRQAPEKGLEWVAYISSGSRAVFFADTVKGRFTISRDNAKNTLFLQMTSLRSDDTAMYYCARDRYDGRGFAYWGQGTLVTVSA VL: DIVLTQSPATLSVTPGDSVSLSCRASQSISNNLHWYQQTSHESPRLLITYASQSISGIPSRFSGSGSGTDFTLSINSVETEDFGMYFCQQSNSWPLTFGAGTKLELKR	0.767 nM	0.000872 s⁻¹	1.14e+06 M⁻¹ s⁻¹	0.159 OD ratio	3.92 nM	0.00356 s⁻¹	908000 M⁻¹ s⁻¹
Mu_02D09_VL (SEQ ID NO: 33)_Q27A (antibody, V domains shown) VH: EVQLVESGGGLVKPGGSLTLSCAASGFTFSDYGMHWLRQAPEKGLEWVAYISSGSRAVFFADTVKGRFTISRDNAKNTLFLQMTSLRSDDTAMYYCARDRYDGRGFAYWGQGTLVTVSA VL: DIVLTQSPATLSVTPGDSVSLSCRASASISNNLHWYQQTSHESPRLLITYASQSISGIPSRFSGSGSGTDFTLSINSVETEDFGMYFCQQSNSWPLTFGAGTKLELKR	7.57 nM	0.00109 s⁻¹	144000 M⁻¹ s⁻¹	0.025 OD ratio	35 nM	0.00441 s⁻¹	126000 M⁻¹ s⁻¹
Mu_02D09_VL (SEQ ID NO: 33)_S56A (antibody, V domains shown) VH: EVQLVESGGGLVKPGGSLTLSCAASGFTFSDYGMHWLRQAPEKGLEWVAYISSGSRAVFFADTVKGRFTISRDNAKNTLFLQMTSLRSDDTAMYYCARDRYDGRGFAYWGQGTLVTVSA VL: DIVLTQSPATLSVTPGDSVSLSCRASQSISNNLHWYQQTSHESPRLLITYASQSIAGIPSRFSGSGSGTDFTLSINSVETEDFGMYFCQQSNSWPLTFGAGTKLELKR	9.3 nM	0.00107 s⁻¹	116000 M⁻¹ s⁻¹	0 OD ratio	159 nM	0.00653 s⁻¹	41200 M⁻¹ s⁻¹
Mu_02D09_VH (SEQ ID NO: 31)_Y32A (antibody, V domains shown) VH: EVQLVESGGGLVKPGGSLTLSCAASGFTFSDAGMHWLRQAPEKGLEWVAYISSGSRAVFFADTVKGRFTISRDNAKNTLFLQMTSLRSDDTAMYYCARDRYDGRGFAYWGQGTLVTVSA VL: DIVLTQSPATLSVTPGDSVSLSCRASQSISNNLHWYQQTSHESPRLLITYASQSISGIPSRFSGSGSGTDFTLSINSVETEDFGMYFCQQSNSWPLTFGAGTKLELKR	6.39 nM	0.000765 s⁻¹	120000 M⁻¹ s⁻¹	0.991 OD ratio	34.8 nM	0.0246 s⁻¹	707000 M⁻¹ s⁻¹
Mu_09E09_VL (SEQ ID NO: 37)_Y32A (antibody, V domains shown) VH: DVKLVESGEGLVKPGGSLKLSCAASGFTFSSYAMSWVRQTPEKRLEWVAYISSGGDYIYYADTVKGRFTISRDNARNTLYLQMSSLKSEDTAMYYCTRDPITGTFAYWGQGTLVTVSA VL: DLQMTQTTSSLSASLGDRVTISCRASQDINNALNWYQQKPDGTVKLLIYYTSTLHSGVPSRFSGSGSGTDYSLTISNLEQEDIATYFCQQGNTLPWTFGGGTKLEIKR	0.632 nM	0.00158 s⁻¹	2.51e+06 M⁻¹ s⁻¹	0.092 OD ratio	–	–	–
Mu_09E09_VL (SEQ ID NO: 37)_N34A (antibody, V domains shown) VH: DVKLVESGEGLVKPGGSLKLSCAASGFTFSSYAMSWVRQTPEKRLEWVAYISSGGDYIYYADTVKGRFTISRDNARNTLYLQMSSLKSEDTAMYYCTRDPITGTFAYWGQGTLVTVSA VL: DLQMTQTTSSLSASLGDRVTISCRASQDINNYLAWYQQKPDGTVKLLIYYTSTLHSGVPSRFSGSGSGTDYSLTISNLEQEDIATYFCQQGNTLPWTFGGGTKLEIKR	5.02 nM	0.00161 s⁻¹	321000 M⁻¹ s⁻¹	0.023 OD ratio	–	–	–
Mu_09E09_VL (SEQ ID NO: 37)_G91A (antibody, V domains shown) VH: DVKLVESGEGLVKPGGSLKLSCAASGFTFSSYAMSWVRQTPEKRLEWVAYISSGGDYIYYADTVKGRFTISRDNARNTLYLQMSSLKSEDTAMYYCTRDPITGTFAYWGQGTLVTVSA VL: DLQMTQTTSSLSASLGDRVTISCRASQDINNYLNWYQQKPDGTVKLLIYYTSTLHSGVPSRFSGSGSGTDYSLTISNLEQEDIATYFCQQANTLPWTFGGGTKLEIKR	2.21 nM	0.00203 s⁻¹	918000 M⁻¹ s⁻¹	0.136 OD ratio	–	–	–
Mu_09E09_VL (SEQ ID NO: 37)_L94A (antibody, V domains shown) VH: DVKLVESGEGLVKPGGSLKLSCAASGFTFSSYAMSWVRQTPEKRLEWVAYISSGGDYIYYADTVKGRFTISRDNARNTLYLQMSSLKSEDTAMYYCTRDPITGTFAYWGQGTLVTVSA VL: DLQMTQTTSSLSASLGDRVTISCRASQDINNYLNWYQQKPDGTVKLLIYYTSTLHSGVPSRFSGSGSGTDYSLTISNLEQEDIATYFCQQGNTAPWTFGGGTKLEIKR	0.621 nM	0.00167 s⁻¹	2.68e+06 M⁻¹ s⁻¹	0.055 OD ratio	–	–	–

Second part, the binder after the results:

Kd [1]	koff [1]	kon [1]	ELISA ratio [2]	Kd [3]	koff [3]	kon [3]	Binder
0.407 nM	0.000108 s⁻¹	266000 M⁻¹ s⁻¹	1.06 OD ratio	–	–	–	Mu_19F07_VH (SEQ ID NO: 47)_Y33A (antibody, V domains shown) VH: EVKLVESEGGLVQPGSSMKLSCTASGFTFSDYAMAWVRQVPEKGLEWVANINYDGSSTYYLDSLKSRFIISRDNAKNILYLQMSSLKSEDTATYYCARGLTWDFDVWGTGTTVTVSS VL: DIVMTQSHKFMSPSVGDRVSITCKASQDVDTAVAWYQQKPGQSPKLLIYLASTRHTGVPDRFTGSGSGTDFTLTISNVQSEDLADYFCQQYSRFPLTFGAGTKLELKR
0.00048 nM	1.31e-07 s⁻¹	273000 M⁻¹ s⁻¹	1.08 OD ratio	–	–	–	Mu_19F07_VL (SEQ ID NO: 49)_Q90A (antibody, V domains shown) VH: EVKLVESEGGLVQPGSSMKLSCTASGFTFSDYYMAWVRQVPEKGLEWVANINYDGSSTYYLDSLKSRFIISRDNAKNILYLQMSSLKSEDTATYYCARGLTWDFDVWGTGTTVTVSS VL: DIVMTQSHKFMSPSVGDRVSITCKASQDVDTAVAWYQQKPGQSPKLLIYLASTRHTGVPDRFTGSGSGTDFTLTISNVQSEDLADYFCQAYSRFPLTFGAGTKLELKR
0.4 nM	0.000141 s⁻¹	351000 M⁻¹ s⁻¹	0.74 OD ratio	–	–	–	Mu_19F07_VH (SEQ ID NO: 47)_Y59A (antibody, V domains shown) VH: EVKLVESEGGLVQPGSSMKLSCTASGFTFSDYYMAWVRQVPEKGLEWVANINYDGSSTAYLDSLKSRFIISRDNAKNILYLQMSSLKSEDTATYYCARGLTWDFDVWGTGTTVTVSS VL: DIVMTQSHKFMSPSVGDRVSITCKASQDVDTAVAWYQQKPGQSPKLLIYLASTRHTGVPDRFTGSGSGTDFTLTISNVQSEDLADYFCQQYSRFPLTFGAGTKLELKR
0.0052 nM	4.7e-07 s⁻¹	90400 M⁻¹ s⁻¹	1.09 OD ratio	–	–	–	Mu_19F07_VL (SEQ ID NO: 49)_F94A (antibody, V domains shown) VH: EVKLVESEGGLVQPGSSMKLSCTASGFTFSDYYMAWVRQVPEKGLEWVANINYDGSSTYYLDSLKSRFIISRDNAKNILYLQMSSLKSEDTATYYCARGLTWDFDVWGTGTTVTVSS VL: DIVMTQSHKFMSPSVGDRVSITCKASQDVDTAVAWYQQKPGQSPKLLIYLASTRHTGVPDRFTGSGSGTDFTLTISNVQSEDLADYFCQQYSRAPLTFGAGTKLELKR
–	–	144000 M⁻¹ s⁻¹	0.982 OD ratio	–	–	–	Mu_19F07_VH (SEQ ID NO: 47)_F104A (antibody, V domains shown) VH: EVKLVESEGGLVQPGSSMKLSCTASGFTFSDYYMAWVRQVPEKGLEWVANINYDGSSTYYLDSLKSRFIISRDNAKNILYLQMSSLKSEDTATYYCARGLTWDADVWGTGTTVTVSS VL: DIVMTQSHKFMSPSVGDRVSITCKASQDVDTAVAWYQQKPGQSPKLLIYLASTRHTGVPDRFTGSGSGTDFTLTISNVQSEDLADYFCQQYSRFPLTFGAGTKLELKR
0.0511 nM	2.38e-06 s⁻¹	46500 M⁻¹ s⁻¹	0.985 OD ratio	–	–	–	Mu_19F07_VL (SEQ ID NO: 49)_Q89A (antibody, V domains shown) VH: EVKLVESEGGLVQPGSSMKLSCTASGFTFSDYYMAWVRQVPEKGLEWVANINYDGSSTYYLDSLKSRFIISRDNAKNILYLQMSSLKSEDTATYYCARGLTWDFDVWGTGTTVTVSS VL: DIVMTQSHKFMSPSVGDRVSITCKASQDVDTAVAWYQQKPGQSPKLLIYLASTRHTGVPDRFTGSGSGTDFTLTISNVQSEDLADYFCAQYSRFPLTFGAGTKLELKR
0.0143 nM	5.86e-07 s⁻¹	41100 M⁻¹ s⁻¹	1.11 OD ratio	–	–	–	Mu_19F07_VL (SEQ ID NO: 49)_L50A (antibody, V domains shown) VH: EVKLVESEGGLVQPGSSMKLSCTASGFTFSDYYMAWVRQVPEKGLEWVANINYDGSSTYYLDSLKSRFIISRDNAKNILYLQMSSLKSEDTATYYCARGLTWDFDVWGTGTTVTVSS VL: DIVMTQSHKFMSPSVGDRVSITCKASQDVDTAVAWYQQKPGQSPKLLIYAASTRHTGVPDRFTGSGSGTDFTLTISNVQSEDLADYFCQQYSRFPLTFGAGTKLELKR
0.00536 nM	9.05e-07 s⁻¹	169000 M⁻¹ s⁻¹	0.821 OD ratio	–	–	–	Mu_19F07_VL (SEQ ID NO: 49)_T53A (antibody, V domains shown) VH: EVKLVESEGGLVQPGSSMKLSCTASGFTFSDYYMAWVRQVPEKGLEWVANINYDGSSTYYLDSLKSRFIISRDNAKNILYLQMSSLKSEDTATYYCARGLTWDFDVWGTGTTVTVSS VL: DIVMTQSHKFMSPSVGDRVSITCKASQDVDTAVAWYQQKPGQSPKLLIYLASARHTGVPDRFTGSGSGTDFTLTISNVQSEDLADYFCQQYSRFPLTFGAGTKLELKR
6.88 nM	0.000701 s⁻¹	102000 M⁻¹ s⁻¹	0 OD ratio	–	–	–	Mu_10F07_VH (SEQ ID NO: 39)_I101A (antibody, V domains shown) VH: DVKLVESGEGLVKPGGSLKLSCAASGFTFSSYAMSWVRQTPEKRLEWVTYISSGGDYFYYADTVKGRFTISRDNARNTLYLQMSSLKSEDTAMYYCTRDPATGTFAYWGQGTLVTVSA VL: DIQMTQTTSSLSASLGDRVTISCRASQDITNYLNWYQQKPDGTVKLLIYYTSTLHSGVPSRFSGSGSGTDFSLTISNLEQEDIATYFCQQGHMLPWTFGGGTKLEIKR
0.00714 nM	1.73e-06 s⁻¹	242000 M⁻¹ s⁻¹	0 OD ratio	–	–	–	Mu_10F07_VL (SEQ ID NO: 41)_Y50A (antibody, V domains shown) VH: DVKLVESGEGLVKPGGSLKLSCAASGFTFSSYAMSWVRQTPEKRLEWVTYISSGGDYFYYADTVKGRFTISRDNARNTLYLQMSSLKSEDTAMYYCTRDPITGTFAYWGQGTLVTVSA VL: DIQMTQTTSSLSASLGDRVTISCRASQDITNYLNWYQQKPDGTVKLLIYATSTLHSGVPSRFSGSGSGTDFSLTISNLEQEDIATYFCQQGHMLPWTFGGGTKLEIKR

Source: US20220177594A1
